Laboratory results published in patent publication US20180362587A1, “Compositions and Methods for Inhibiting CBP80 Binding to PGC1 Family of Co-Activators” (University of Rochester, priority 2015, published 2018).
Primed or numbered codes have the meaning given here. * marks the point of attachment. Biotin = O=C1N[C@H]2[C@H](CS[C@H]2CCCCC(=O)*)N1; FITC′ = fluorescein-isothiocyanate; Ahx = NCCCCCC(=O)O

How the values were obtained:
FLAG-PGC1α WT = molecular target: T1, FLAG-PGC1α WT (human, UniProt Q9UBK2 1-798); assay: anti-FLAG IP from C2C12 knock-down cells, western blot
T1 construct: also called FLAG-tagged human (h) PGC1α wild-type; FLAG-PCG1α WT; not shown: FLAG tag
T1 sequence (looked up): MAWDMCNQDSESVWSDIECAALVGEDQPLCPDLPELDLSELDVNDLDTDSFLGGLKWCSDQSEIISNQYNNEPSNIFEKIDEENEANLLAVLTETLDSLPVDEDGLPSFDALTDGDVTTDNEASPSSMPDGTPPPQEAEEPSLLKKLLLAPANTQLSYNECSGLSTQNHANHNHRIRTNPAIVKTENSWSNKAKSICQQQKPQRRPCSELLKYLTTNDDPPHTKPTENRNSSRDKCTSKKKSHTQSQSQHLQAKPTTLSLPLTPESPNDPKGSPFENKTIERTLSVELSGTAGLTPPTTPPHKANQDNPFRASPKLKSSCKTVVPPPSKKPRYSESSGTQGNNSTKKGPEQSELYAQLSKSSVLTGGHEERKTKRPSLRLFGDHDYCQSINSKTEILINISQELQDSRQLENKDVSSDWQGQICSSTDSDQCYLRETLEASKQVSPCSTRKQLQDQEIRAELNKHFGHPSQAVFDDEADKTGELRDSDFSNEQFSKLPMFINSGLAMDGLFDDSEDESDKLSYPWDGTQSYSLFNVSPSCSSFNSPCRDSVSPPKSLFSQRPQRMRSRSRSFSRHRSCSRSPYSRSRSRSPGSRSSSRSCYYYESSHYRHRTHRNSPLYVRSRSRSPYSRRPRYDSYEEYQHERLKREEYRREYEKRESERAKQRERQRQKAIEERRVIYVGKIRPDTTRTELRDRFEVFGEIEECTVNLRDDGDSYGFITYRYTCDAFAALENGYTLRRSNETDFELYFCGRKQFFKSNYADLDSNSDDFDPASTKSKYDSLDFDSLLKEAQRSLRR

CBP80/CBP20 complex [1] = molecular target: T2, CBP80/CBP20 complex (human, UniProt Q09161 20-790; P52298 1-156, limits assumed); assay: fluorescence polarization; 1 µM FITC peptide titrated with CBC complex (1-80 µM), 1:1 model
T2 construct: Used in the fluorescence polarization assays; In the crystal it also carried the cap analogue (m7GpppG / m7GpppA); also called CBC complex; CBC
T2 sequence (looked up) 1: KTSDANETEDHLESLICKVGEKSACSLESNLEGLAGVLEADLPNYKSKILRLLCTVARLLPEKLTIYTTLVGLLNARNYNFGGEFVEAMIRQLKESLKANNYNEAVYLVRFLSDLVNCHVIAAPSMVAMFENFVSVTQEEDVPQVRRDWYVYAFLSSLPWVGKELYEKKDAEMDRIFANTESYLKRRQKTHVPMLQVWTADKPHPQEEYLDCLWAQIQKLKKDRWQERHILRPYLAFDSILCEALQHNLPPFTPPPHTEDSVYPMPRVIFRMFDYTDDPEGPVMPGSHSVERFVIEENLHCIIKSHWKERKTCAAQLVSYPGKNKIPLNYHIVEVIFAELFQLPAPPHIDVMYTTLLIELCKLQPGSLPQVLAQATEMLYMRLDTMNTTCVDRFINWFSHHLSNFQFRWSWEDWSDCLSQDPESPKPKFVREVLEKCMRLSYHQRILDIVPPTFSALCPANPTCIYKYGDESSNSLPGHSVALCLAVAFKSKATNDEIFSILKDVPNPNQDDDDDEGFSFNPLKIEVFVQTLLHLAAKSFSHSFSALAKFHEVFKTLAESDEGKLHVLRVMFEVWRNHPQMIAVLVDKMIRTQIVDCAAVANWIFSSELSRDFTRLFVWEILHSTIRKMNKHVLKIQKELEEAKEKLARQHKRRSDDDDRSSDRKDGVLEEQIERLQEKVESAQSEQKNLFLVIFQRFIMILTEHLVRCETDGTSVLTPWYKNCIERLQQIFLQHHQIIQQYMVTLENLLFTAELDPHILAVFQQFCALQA
T2 sequence (looked up) 2: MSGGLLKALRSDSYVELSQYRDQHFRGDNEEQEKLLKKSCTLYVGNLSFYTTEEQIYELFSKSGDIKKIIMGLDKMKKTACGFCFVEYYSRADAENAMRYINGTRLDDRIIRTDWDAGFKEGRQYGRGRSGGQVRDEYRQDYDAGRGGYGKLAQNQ
Procedure: In order to develop a first set of PGC1β mimics, a series of linear peptides encompassing the CBP80-binding domain of PGC1β were designed and synthesized (Table 3). The ability of these peptides to bind to CBP80 in complex with CBP20 (also referred herein as ‘CBC complex’ or simply ‘CBC’) was assessed using a fluorescence polarization assay in the presence of fluorescein-conjugated PGC1β-derived peptide (FITC-Ahx-[…]-NH₂ (SEQ ID NO:XX), where FITC is fluorescein-isothiocyanate and Ahx is 6-aminohexanoic acid).
The assay was performed in a 15-μl scale in a low-volume 384-well black plate on a Tecan M1000 Plate Reader using 470/20 nm excitation and 520/20 nm emission filters. All proteins and peptides were dissolved and diluted in HEPES buffer (50 mM NaCl, 10 mM HEPES […]). Fluorescently labelled PGC1β peptide (FITC-Ahx-[…]-NH₂) was used at 1 μM final concentration, and fluorescence polarization data were recorded at increasing concentration of the CBC complex (1-80 μM) after a 10-min incubation. The resulting concentration-dependent FP curve was fit to a 1:1 binding model to yield dissociation constant (KD) values. Measurements were performed at least in duplicates.

CBP80/CBP20 complex [2] = molecular target: T2, CBP80/CBP20 complex; assay: FP competition assay; FITC-labeled PGC1β peptide as competitor
Procedure: (§1) The relative activity of the PGC1β mimics toward disrupting the interaction between CBC and the fluorescein-conjugated PGC1β-derived peptide was measured in a competition assay. Briefly, a fixed amount of CBC and fluorescein-conjugated PGC1β-derived peptide are incubated with increasing amounts of the PGC1β mimic (FIG. 11A). From the resulting dose-dependent inhibition curves, the in vitro CBC inhibitory activity of the PGC1β mimic compound is measured based on their respective half-maximal inhibitory concentration (IC₅₀) (FIG. 5B). Using this assay, various PGC1β mimics were evaluated for their relative ability to target CBC and disrupt its binding interaction with PGC1β. […] Short peptides derived from the C-terminal domain of PGC1β and PRC proteins, two other members of the PGC1 family of transcriptional coactivators, were also to bind CBC and inhibits its interaction with the fluorescein-labeled PGC1β peptide with IC₅₀ values in the low micromolar range.
IC₅₀ values were determined by adapting the fluorescence polarization assay described above to a competition format. […] Half-maximal inhibitory concentration (IC₅₀) values were calculated from the resulting inhibition curves as given by dose-dependent decrease in the fluorescence polarization signal. […]

CBP80/CBP20 complex [3] = molecular target: T2, CBP80/CBP20 complex; assay: FP competition assay; 1 µM FITC-Ahx-…-NH2 as competitor, 30 µM CBP80/CBP20 complex
Procedure: as §1
^aAc = acetyl; Biot = biotin; Ahx = 6-aminohexanoic acid; Aib = 2-aminoisobutyric acid; CrtDab = N^γ-crotonyl-2,4-diaminobutyric acid. C-terminal ‘-NH₂’ refers to amidated C-terminal end of the peptide. ^bIC₅₀ was determined using fluorescence polarization based competition assay in the presence of 1 μM of FITC-labeled PGC1β (FITC-Ahx-[…]-NH₂, where FITC is fluorescein-isothiocyanate) and 30 μM of the CBP80/CBP20 complex in HEPES buffer (10 mM HEPES, 50 mM NaCl, 5 mM BME, pH 7.5).
(§2) IC₅₀ values were determined by adapting the fluorescence polarization assay described above to a competition format. 1 μM of the FITC-labeled PGC1β peptide (FITC-Ahx-[…]-NH₂) was incubated with 30 μM of the CBP80-CBP20 complex in HEPES Buffer (10 mM HEPES [pH 7.5], 50 mM NaCl and 5 mM 2-mercaptoethanol).

CBP80/CBP20 complex [4] = molecular target: T2, CBP80/CBP20 complex; assay: FP competition assay, alanine scan
Procedure: To examine the tolerance of this compound to sequence modification, an alanine-scanning library was synthesized. This library of PGC1β mimics consisted of 11 linear peptides (PGC1β-2A through PGC1β-12A; Table 3), in which each amino acid residue of the parent PGC1β-wt peptide was replaced with alanine (or with glycine, when the parent residue is alanine). The peptides were tested for their ability to inhibit the CBC-PGC1β interaction using the aforementioned fluorescence polarization-based competition assay. […] These compounds include PGC1β mimics containing non-canonical amino acids such as 2-aminoisobutyric acid (Aib) and […]-crotonyl-2,4-diaminobutyric acid (CrtDab). Aib is an α,α-disubstituted amino acid which is well known for its ability to stabilize α-helical peptide structures as well as increase peptide stability against proteolysis.
as §2

B1: endogenous CBP80 of mouse C2C12 myoblasts (other, UniProt Q3UYV9 1-790, looked up)
chain: MSRRRHSYENDGGQPHKRRKTSDANETEDHLESLICKVGEKSACSLESNLEGLAGVLEADLPNYKSKILRLLCTVARLLPEKLTIYTTLVGLLNARNYNFGGEFVEAMIRQLKESLKANNYNEAVYLVRFLSDLVNCHVIAAPSMVAMFENFVSVTQEEDVPQVRRDWYVYAFLSSLPWVGKELYEKKDAEMDRIFSTTESYLKRRQKTHVPMLQVWTADKPHPQEEYLDCLWAQIQKLKKDRWQERHILRPYLAFDSILCEALQHNLPPFTPPPHTEDSVYPMPRVIFRMFDYTDDPEGPVMPGSHSVERFVIEENLHCIIKSYWKERKTCAAQLVSYPGKNKIPLNYHIVEVIFAELFQLPAPPHIDVMYTTLLIELCKLQPGSLPQVLAQATEMLYMRLDTMSTTCVDRFINWFSHHLSNFQFRWSWEDWSDCLTQDLESPKPKFVREVLEKCMRLSYHQHILDIVPPTFSALCPANPTCIYKYGDESSNSLPGHSVALCLSVAFKSKATNDEIFSILKDVPNPNQVDDDDEGFRFNPLKIEVFVQTLLHLAAKSFSHSFSALAKFHEVFKTLAESDKGKLHVLRVMFEVWRNHPQMIAVLVDKMIRTQIVDCAAVANWIFSSELSRDFTRLFVWEILHSTIRKMNKHVLKIQKELEEAKEKLARQHKRRSDDDDRSSDRKDGALEEQIERLQEKVEAAQSEQKNLFLVIFQRFIMILTEHLVRCETDGTSILTPWYKNCIERLQQIFLQHHQTIQQYMVTLENLLFTAELDPHILAVFQQFCALQA
FLAG-PGC1α WT
  binding result: binds

B2: FITC-Ahx-AMDFDSLLKEAQQSLH-NH2 (peptide)
peptide: {FITC′-Ahx}-AMDFDSLLKEAQQSLH-NH2
notes: Tracer of the FP assays; also called fluorescein-conjugated PGC1β-derived peptide; FITC-labeled PGC1β peptide
CBP80/CBP20 complex [1]
  Kd: 47 µM

B3: Biot-PGC1β (Biot-Ahx-SGG-AMDFDSLLKEAQQSLH-NH2) (peptide)
peptide: {Biotin-Ahx}-SGGAMDFDSLLKEAQQSLH-NH2
SMILES: CSCC[C@H](NC(=O)[C@H](C)NC(=O)CNC(=O)CNC(=O)[C@H](CO)NC(=O)CCCCCNC(=O)CCCC[C@@H]1SC[C@@H]2NC(=O)N[C@@H]21)C(=O)N[C@@H](CC(=O)O)C(=O)N[C@@H](Cc1ccccc1)C(=O)N[C@@H](CC(=O)O)C(=O)N[C@@H](CO)C(=O)N[C@@H](CC(C)C)C(=O)N[C@@H](CC(C)C)C(=O)N[C@@H](CCCCN)C(=O)N[C@@H](CCC(=O)O)C(=O)N[C@@H](C)C(=O)N[C@@H](CCC(N)=O)C(=O)N[C@@H](CCC(N)=O)C(=O)N[C@@H](CO)C(=O)N[C@@H](CC(C)C)C(=O)N[C@@H](Cc1c[nH]cn1)C(N)=O
notes: also called Biot-PGC1β peptide; biotinylated version of the PGC1β peptide
CBP80/CBP20 complex [2]
  IC50: 31 µM
CBP80/CBP20 complex [3]
  IC50: 35 µM

## Ac-MDFDSLLKAAQQS-NH2 [PGC1β-9A (Ac-MDFDSLLKAAQQS-NH2)]
CBP80/CBP20 complex [4]
  fold improvement of inhibitory activity against PGC1β-wt: ≤ 2 fold
CBP80/CBP20 complex [3]
  IC50: 33 µM
